The text below walks through data of PMC10268231 (Nature, 2021).

Broadly, the stoichiometry N is the number of molecules, sites or subunits per partner or assembly.

T1: PRIM2 (human, UniProt P49643-1 1-509)
T1 sequence (looked up): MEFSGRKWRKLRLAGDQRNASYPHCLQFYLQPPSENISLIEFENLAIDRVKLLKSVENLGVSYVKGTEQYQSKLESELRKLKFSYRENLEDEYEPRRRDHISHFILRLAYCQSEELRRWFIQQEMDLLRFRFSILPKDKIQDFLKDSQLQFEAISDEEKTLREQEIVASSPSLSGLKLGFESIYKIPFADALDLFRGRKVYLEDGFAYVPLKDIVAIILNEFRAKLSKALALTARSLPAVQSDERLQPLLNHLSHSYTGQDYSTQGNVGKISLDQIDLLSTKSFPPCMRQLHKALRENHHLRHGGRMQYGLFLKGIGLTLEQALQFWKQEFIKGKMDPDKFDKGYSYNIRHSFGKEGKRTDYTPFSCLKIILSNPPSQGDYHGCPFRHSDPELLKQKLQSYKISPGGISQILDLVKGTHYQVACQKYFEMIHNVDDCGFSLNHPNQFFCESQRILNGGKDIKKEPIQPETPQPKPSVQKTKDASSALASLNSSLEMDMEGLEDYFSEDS

T2: POLA1 (human, UniProt P09884 1-1462)
T2 sequence (looked up): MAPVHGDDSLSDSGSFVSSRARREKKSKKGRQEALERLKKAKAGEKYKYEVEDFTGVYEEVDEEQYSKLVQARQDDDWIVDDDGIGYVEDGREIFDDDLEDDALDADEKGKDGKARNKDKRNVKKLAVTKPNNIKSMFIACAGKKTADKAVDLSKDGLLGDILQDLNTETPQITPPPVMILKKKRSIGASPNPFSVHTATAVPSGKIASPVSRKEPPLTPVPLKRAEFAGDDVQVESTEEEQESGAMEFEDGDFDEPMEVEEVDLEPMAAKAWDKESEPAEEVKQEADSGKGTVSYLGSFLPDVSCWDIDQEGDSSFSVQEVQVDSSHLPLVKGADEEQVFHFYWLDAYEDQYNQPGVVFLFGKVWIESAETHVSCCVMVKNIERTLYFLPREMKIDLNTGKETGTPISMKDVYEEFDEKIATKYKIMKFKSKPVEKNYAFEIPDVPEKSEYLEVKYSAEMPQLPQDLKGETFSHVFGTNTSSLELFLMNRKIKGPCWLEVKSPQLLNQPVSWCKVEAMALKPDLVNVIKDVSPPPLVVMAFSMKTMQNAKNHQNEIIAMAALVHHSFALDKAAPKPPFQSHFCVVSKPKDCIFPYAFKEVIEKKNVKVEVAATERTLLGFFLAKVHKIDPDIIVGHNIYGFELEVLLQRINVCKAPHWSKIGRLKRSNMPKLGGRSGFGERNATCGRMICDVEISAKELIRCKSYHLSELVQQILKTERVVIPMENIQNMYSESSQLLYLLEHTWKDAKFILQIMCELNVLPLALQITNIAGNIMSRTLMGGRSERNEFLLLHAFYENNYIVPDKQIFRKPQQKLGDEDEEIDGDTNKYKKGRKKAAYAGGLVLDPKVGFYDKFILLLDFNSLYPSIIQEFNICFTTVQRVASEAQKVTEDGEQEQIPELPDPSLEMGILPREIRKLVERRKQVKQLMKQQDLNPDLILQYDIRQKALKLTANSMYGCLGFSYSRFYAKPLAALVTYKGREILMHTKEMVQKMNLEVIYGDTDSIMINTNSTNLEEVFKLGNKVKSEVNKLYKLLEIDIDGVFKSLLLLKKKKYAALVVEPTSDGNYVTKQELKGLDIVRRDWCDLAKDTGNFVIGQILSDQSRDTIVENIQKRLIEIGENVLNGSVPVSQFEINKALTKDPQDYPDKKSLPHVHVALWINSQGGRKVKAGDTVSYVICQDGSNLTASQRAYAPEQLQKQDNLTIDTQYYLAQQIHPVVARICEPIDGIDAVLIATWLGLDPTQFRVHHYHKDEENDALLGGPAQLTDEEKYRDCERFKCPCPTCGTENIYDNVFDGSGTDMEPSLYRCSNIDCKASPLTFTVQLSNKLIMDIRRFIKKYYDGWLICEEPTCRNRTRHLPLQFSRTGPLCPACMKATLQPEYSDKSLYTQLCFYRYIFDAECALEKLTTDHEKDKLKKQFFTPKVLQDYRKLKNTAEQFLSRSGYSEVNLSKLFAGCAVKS

B1: STN1 (natural protein, human)
chain: QPGSSRCEEETPSLLWGLDPVFLAFAKLYIRDILDMKESRQVPGVFLYNGHPIKQVDVLGTVIGVRERDAFYSYGVDDSTGVINCICWKKLNTESVSAAPSAARELSLTSQLKKLQETIEQKTKIEIGDTIRVRGSIRTYREEREIHATTYYKVDDPVWNIQIARMLELPTIYRKVYDQPFHSSALEKEEALSNPGALDLPSLTSLLSEKAKEFLMENRVQSFYQQELEMVESLLSLANQPVIHSASSDQVNFKKDTTSKAIHSIFKNAIQLLQEKGLVFQKDDGFDNLYYVTREDKDLHRKIHRIIQQDCQKPNHMEKGCHFLHILACARLSIRPGLSEAVLQQVLELLEDQSDIVSTMEHYYTAF
B2: PRIM1 (natural protein, human)
chain: ETFDPTELPELLKLYYRRLFPYSQYYRWLNYGGVIKNYFQHREFSFTLKDDIYIRYQSFNNQSDLEKEMQKMNPYKIDIGAVYSHRPNQHNTVKLGAFQAQEKELVFDIDMTDYDDVRRCCSSADICPKCWTLMTMAIRIIDRALKEDFGFKHRLWVYSGRRGVHCWVCDESVRKLSSAVRSGIVEYLSLVKGGQDVKKKVHLSEKIHPFIRKSINIIKKYFEEYALVNQDILENKESWDKILALVPETIHDELQQSFQKSHNSLQRWEHLKKVASRYQNNIKNDKYGPWLEWEIMLQYCFPRLDINVSKGINHLLKSPFSVHPKTGRISVPIDLQKVDQFDPFTVPTISFICRELDAISTNEEEKEENEAESDVKHRTRDYKKTSLAPYVKVFEHFLENLDKSRKGELLKKSDLQKDF
B3: CTC1 (natural protein, human, UniProt Q2NKJ3 1-1217, looked up)
chain: MAAGRAQVPSSEQAWLEDAQVFIQKTLCPAVKEPNVQLTPLVIDCVKTVWLSQGRNQGSTLPLSYSFVSVQDLKTHQRLPCCSHLSWSSSAYQAWAQEAGPNGNPLPREQLLLLGTLTDLSADLEQECRNGSLYVRDNTGVLSCELIDLDLSWLGHLFLFPRWSYLPPARWNSSGEGHLELWDAPVPVFPLTISPGPVTPIPVLYPESASCLLRLRNKLRGVQRNLAGSLVRLSALVKSKQKAYFILSLGRSHPAVTHVSIIVQVPAQLVWHRALRPGTAYVLTELRVSKIRGQRQHVWMTSQSSRLLLLKPECVQELELELEGPLLEADPKPLPMPSNSEDKKDPESLVRYSRLLSYSGAVTGVLNEPAGLYELDGQLGLCLAYQQFRGLRRVMRPGVCLQLQDVHLLQSVGGGTRRPVLAPCLRGAVLLQSFSRQKPGAHSSRQAYGASLYEQLVWERQLGLPLYLWATKALEELACKLCPHVLRHHQFLQHSSPGSPSLGLQLLAPTLDLLAPPGSPVRNAHNEILEEPHHCPLQKYTRLQTPSSFPTLATLKEEGQRKAWASFDPKALLPLPEASYLPSCQLNRRLAWSWLCLLPSAFCPAQVLLGVLVASSHKGCLQLRDQSGSLPCLLLAKHSQPLSDPRLIGCLVRAERFQLIVERDVRSSFPSWKELSMPGFIQKQQARVYVQFFLADALILPVPRPCLHSATPSTPQTDPTGPEGPHLGQSRLFLLCHKEALMKRNFCVPPGASPEVPKPALSFYVLGSWLGGTQRKEGTGWGLPEPQGNDDNDQKVHLIFFGSSVRWFEFLHPGQVYRLIAPGPATPMLFEKDGSSCISRRPLELAGCASCLTVQDNWTLELESSQDIQDVLDANKSLPESSLTDLLSDNFTDSLVSFSAEILSRTLCEPLVASLWMKLGNTGAMRRCVKLTVALETAECEFPPHLDVYIEDPHLPPSLGLLPGARVHFSQLEKRVSRSHNVYCCFRSSTYVQVLSFPPETTISIPLPHIYLAELLQGGQSPFQATASCHIVSVFSLQLFWVCAYCTSICRQGKCTRLGSTCPTQTAISQAIIRLLVEDGTAEAVVTCRNHHVAAALGLCPREWASLLDFVQVPGRVVLQFAGPGAQLESSARVDEPMTMFLWTLCTSPSVLRPIVLSFELERKPSKIVPLEPPRLQRFQCGELPFLTHVNPRLRLSCLSIRESEYSSSLGILASSC
B4: CTC1–STN1–TEN1 (CST) complex (complex, human)
chain 1: B3 chain
chain 2: B1 chain
chain 3: LPKPGTYYLPWEVSAGQVPDGSTLRTFGRLCLYDMIQSRVTLMAQHGSDQHQVLVCTKLVEPFHAQVGSLYIVLGELQHQQDRGSVVKARVLTCVEGMNLPLLEQAIREQRLYKQERGGSQ

Common to all, as to assay: cryo-EM structure
The test “PRIM1” has as its target B2.
Another test addresses T1, PRIM2.
A further test deals with T2, POLA1.
Test [1] concerns the target DNA polymerase-α–primase (Polα–primase) complex, PRIM1–PRIM2–POLA1–POLA2, full-length (human, UniProt P09884 1-1462; Q14181-1 1-598; P49642 2-420; P49643-1 1-509).

Chain of DNA polymerase-α–primase (Polα–primase) complex, PRIM1–PRIM2–POLA1–POLA2, full-length (Q14181 whole entry, one chain of several): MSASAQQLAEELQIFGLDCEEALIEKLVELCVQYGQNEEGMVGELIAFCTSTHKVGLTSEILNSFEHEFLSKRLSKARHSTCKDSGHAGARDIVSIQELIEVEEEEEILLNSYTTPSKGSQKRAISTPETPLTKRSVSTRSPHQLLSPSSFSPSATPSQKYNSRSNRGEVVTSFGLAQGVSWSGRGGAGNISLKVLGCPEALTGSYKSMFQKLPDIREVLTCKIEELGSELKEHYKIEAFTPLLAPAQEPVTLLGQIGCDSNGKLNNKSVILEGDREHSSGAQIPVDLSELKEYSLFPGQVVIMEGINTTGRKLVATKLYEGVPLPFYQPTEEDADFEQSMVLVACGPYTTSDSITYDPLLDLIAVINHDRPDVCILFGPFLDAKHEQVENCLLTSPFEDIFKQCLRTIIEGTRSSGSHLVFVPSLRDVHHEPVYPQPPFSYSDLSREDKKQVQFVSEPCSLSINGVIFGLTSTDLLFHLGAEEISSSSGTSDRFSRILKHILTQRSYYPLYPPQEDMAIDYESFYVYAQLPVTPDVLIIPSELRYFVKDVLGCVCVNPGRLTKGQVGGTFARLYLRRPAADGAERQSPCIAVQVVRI

On to B1, for which, in the test with PRIM1, the binding result is given as “binds”.
Turning to B2, the binding result with PRIM2 was “binds”.
B3: the binding result with POLA1 is listed as “binds”.
For B4, the “stoichiometry N” value in test [1] worked out at 1.
